We go through 12 proteins from patent US20230203108.

For the series, the target named is T1, Recombinant Human Serpin B9/SERPINB9 (C-6His) (Novoprotein, CJ32), P50453.
T1 chain: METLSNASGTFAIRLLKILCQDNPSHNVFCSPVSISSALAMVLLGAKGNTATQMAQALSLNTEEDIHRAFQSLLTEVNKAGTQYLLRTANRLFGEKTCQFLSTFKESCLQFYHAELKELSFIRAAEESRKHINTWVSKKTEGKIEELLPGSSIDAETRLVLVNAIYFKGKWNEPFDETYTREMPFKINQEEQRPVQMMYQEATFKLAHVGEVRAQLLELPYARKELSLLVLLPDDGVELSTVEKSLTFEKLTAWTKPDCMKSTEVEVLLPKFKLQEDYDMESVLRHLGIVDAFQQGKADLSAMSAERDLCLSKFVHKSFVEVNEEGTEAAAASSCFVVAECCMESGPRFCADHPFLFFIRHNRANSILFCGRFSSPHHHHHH

B1: granzyme B variant K44F, L46E, K155P, K172L, S175I, K200R (protein)
chain: IIGGHEAKPHSRPYMAYLMIWDQFSEKRCGGFLIRDDFVLTAAHCWGSSINVTLGAHNIKEQEPTQQFIPVKRPIPHPAYNPKNFSNDIMLLQLERKAKRTRAVQPLRLPSNKAQVKPGQTCSVAGWGQTAPLGPHSHTLQEVKMTVQEDRLCEIDLRHYYDSTIELCVGDPEIKKTSFRGDSGGPLVCNKVAQGIVSYGRNNGMPPRACTKVSSFVHWIKKTMKRY
Consider B1, for which the “protease activity (cleavage of Ac-IEPD-pNA, absorbance at 405 nm) after 1 h at 37 C with 0.5 uM PI-9, relative to wild-type granzyme B” value is on record as “the variants maintained high protease activity even in the presence of inhibitors”.

B2: granzyme B variant K44F, R48K, K155P, K172L, S175I, K200R (protein)
chain: IIGGHEAKPHSRPYMAYLMIWDQFSLKKCGGFLIRDDFVLTAAHCWGSSINVTLGAHNIKEQEPTQQFIPVKRPIPHPAYNPKNFSNDIMLLQLERKAKRTRAVQPLRLPSNKAQVKPGQTCSVAGWGQTAPLGPHSHTLQEVKMTVQEDRLCEIDLRHYYDSTIELCVGDPEIKKTSFRGDSGGPLVCNKVAQGIVSYGRNNGMPPRACTKVSSFVHWIKKTMKRY
Take B2: the “protease activity (cleavage of Ac-IEPD-pNA, absorbance at 405 nm) after 1 h at 37 C with 0.5 uM PI-9, relative to wild-type granzyme B” value is “the variants maintained high protease activity even in the presence of inhibitors”.

B3: granzyme B variant K44L, L46F, K155P, K172L, S175I, K200R (protein)
chain: IIGGHEAKPHSRPYMAYLMIWDQLSFKRCGGFLIRDDFVLTAAHCWGSSINVTLGAHNIKEQEPTQQFIPVKRPIPHPAYNPKNFSNDIMLLQLERKAKRTRAVQPLRLPSNKAQVKPGQTCSVAGWGQTAPLGPHSHTLQEVKMTVQEDRLCEIDLRHYYDSTIELCVGDPEIKKTSFRGDSGGPLVCNKVAQGIVSYGRNNGMPPRACTKVSSFVHWIKKTMKRY
On to B3, for which the “protease activity (cleavage of Ac-IEPD-pNA, absorbance at 405 nm) after 1 h at 37 C with 0.5 uM PI-9, relative to wild-type granzyme B” value is “the variants maintained high protease activity even in the presence of inhibitors”.

B4: granzyme B variant K44L, L46Q, K155P, K172L, S175I, K200R (protein)
chain: IIGGHEAKPHSRPYMAYLMIWDQLSQKRCGGFLIRDDFVLTAAHCWGSSINVTLGAHNIKEQEPTQQFIPVKRPIPHPAYNPKNFSNDIMLLQLERKAKRTRAVQPLRLPSNKAQVKPGQTCSVAGWGQTAPLGPHSHTLQEVKMTVQEDRLCEIDLRHYYDSTIELCVGDPEIKKTSFRGDSGGPLVCNKVAQGIVSYGRNNGMPPRACTKVSSFVHWIKKTMKRY
For B4, the “protease activity (cleavage of Ac-IEPD-pNA, absorbance at 405 nm) after 1 h at 37 C with 0.5 uM PI-9, relative to wild-type granzyme B” value is listed as “the variants maintained high protease activity even in the presence of inhibitors”.

B5: granzyme B variant K44F, L46F, K155P, K172L, S175I, K200R (protein)
chain: IIGGHEAKPHSRPYMAYLMIWDQFSFKRCGGFLIRDDFVLTAAHCWGSSINVTLGAHNIKEQEPTQQFIPVKRPIPHPAYNPKNFSNDIMLLQLERKAKRTRAVQPLRLPSNKAQVKPGQTCSVAGWGQTAPLGPHSHTLQEVKMTVQEDRLCEIDLRHYYDSTIELCVGDPEIKKTSFRGDSGGPLVCNKVAQGIVSYGRNNGMPPRACTKVSSFVHWIKKTMKRY
Regarding B5, the “protease activity (cleavage of Ac-IEPD-pNA, absorbance at 405 nm) after 1 h at 37 C with 0.5 uM PI-9, relative to wild-type granzyme B” value is on record as “the variants maintained high protease activity even in the presence of inhibitors”.

B6: granzyme B variant K44F, L46I, K155P, K172L, S175I, K200R (protein)
chain: IIGGHEAKPHSRPYMAYLMIWDQFSIKRCGGFLIRDDFVLTAAHCWGSSINVTLGAHNIKEQEPTQQFIPVKRPIPHPAYNPKNFSNDIMLLQLERKAKRTRAVQPLRLPSNKAQVKPGQTCSVAGWGQTAPLGPHSHTLQEVKMTVQEDRLCEIDLRHYYDSTIELCVGDPEIKKTSFRGDSGGPLVCNKVAQGIVSYGRNNGMPPRACTKVSSFVHWIKKTMKRY
As to B6, the “protease activity (cleavage of Ac-IEPD-pNA, absorbance at 405 nm) after 1 h at 37 C with 0.5 uM PI-9, relative to wild-type granzyme B” value is reported as “the variants maintained high protease activity even in the presence of inhibitors”.

B7: granzyme B variant K44L, L46I, K155P, K172L, S175I, K200R (protein)
chain: IIGGHEAKPHSRPYMAYLMIWDQLSIKRCGGFLIRDDFVLTAAHCWGSSINVTLGAHNIKEQEPTQQFIPVKRPIPHPAYNPKNFSNDIMLLQLERKAKRTRAVQPLRLPSNKAQVKPGQTCSVAGWGQTAPLGPHSHTLQEVKMTVQEDRLCEIDLRHYYDSTIELCVGDPEIKKTSFRGDSGGPLVCNKVAQGIVSYGRNNGMPPRACTKVSSFVHWIKKTMKRY
Consider B7, for which the “protease activity (cleavage of Ac-IEPD-pNA, absorbance at 405 nm) after 1 h at 37 C with 0.5 uM PI-9, relative to wild-type granzyme B” value is listed as “the variants maintained high protease activity even in the presence of inhibitors”.

B8: granzyme B variant K44F, L46Q, K155P, K172L, S175I, K200R (protein)
chain: IIGGHEAKPHSRPYMAYLMIWDQFSQKRCGGFLIRDDFVLTAAHCWGSSINVTLGAHNIKEQEPTQQFIPVKRPIPHPAYNPKNFSNDIMLLQLERKAKRTRAVQPLRLPSNKAQVKPGQTCSVAGWGQTAPLGPHSHTLQEVKMTVQEDRLCEIDLRHYYDSTIELCVGDPEIKKTSFRGDSGGPLVCNKVAQGIVSYGRNNGMPPRACTKVSSFVHWIKKTMKRY
As to B8, the “protease activity (cleavage of Ac-IEPD-pNA, absorbance at 405 nm) after 1 h at 37 C with 0.5 uM PI-9, relative to wild-type granzyme B” value was “the variants maintained high protease activity even in the presence of inhibitors”.

B9: granzyme B variant K44L, R48K, K155P, K172L, S175I, K200R (protein)
chain: IIGGHEAKPHSRPYMAYLMIWDQLSLKKCGGFLIRDDFVLTAAHCWGSSINVTLGAHNIKEQEPTQQFIPVKRPIPHPAYNPKNFSNDIMLLQLERKAKRTRAVQPLRLPSNKAQVKPGQTCSVAGWGQTAPLGPHSHTLQEVKMTVQEDRLCEIDLRHYYDSTIELCVGDPEIKKTSFRGDSGGPLVCNKVAQGIVSYGRNNGMPPRACTKVSSFVHWIKKTMKRY
For B9, the “protease activity (cleavage of Ac-IEPD-pNA, absorbance at 405 nm) after 1 h at 37 C with 0.5 uM PI-9, relative to wild-type granzyme B” value is given as “the variants maintained high protease activity even in the presence of inhibitors”.

B10: granzyme B variant K44L, L46E, K155P, K172L, S175I, K200R (protein)
chain: IIGGHEAKPHSRPYMAYLMIWDQLSEKRCGGFLIRDDFVLTAAHCWGSSINVTLGAHNIKEQEPTQQFIPVKRPIPHPAYNPKNFSNDIMLLQLERKAKRTRAVQPLRLPSNKAQVKPGQTCSVAGWGQTAPLGPHSHTLQEVKMTVQEDRLCEIDLRHYYDSTIELCVGDPEIKKTSFRGDSGGPLVCNKVAQGIVSYGRNNGMPPRACTKVSSFVHWIKKTMKRY
B10: the “protease activity (cleavage of Ac-IEPD-pNA, absorbance at 405 nm) after 1 h at 37 C with 0.5 uM PI-9, relative to wild-type granzyme B” value is listed as “the variants maintained high protease activity even in the presence of inhibitors”.

B11: granzyme B variant K44L, R48E, K155P, K172L, S175I, K200R (protein)
chain: IIGGHEAKPHSRPYMAYLMIWDQLSLKECGGFLIRDDFVLTAAHCWGSSINVTLGAHNIKEQEPTQQFIPVKRPIPHPAYNPKNFSNDIMLLQLERKAKRTRAVQPLRLPSNKAQVKPGQTCSVAGWGQTAPLGPHSHTLQEVKMTVQEDRLCEIDLRHYYDSTIELCVGDPEIKKTSFRGDSGGPLVCNKVAQGIVSYGRNNGMPPRACTKVSSFVHWIKKTMKRY
Regarding B11, the “protease activity (cleavage of Ac-IEPD-pNA, absorbance at 405 nm) after 1 h at 37 C with 0.5 uM PI-9, relative to wild-type granzyme B” value is on record as “the variants maintained high protease activity even in the presence of inhibitors”.

B12: granzyme B variant K44F, R48E, K155P, K172L, S175I, K200R (protein)
chain: IIGGHEAKPHSRPYMAYLMIWDQFSLKECGGFLIRDDFVLTAAHCWGSSINVTLGAHNIKEQEPTQQFIPVKRPIPHPAYNPKNFSNDIMLLQLERKAKRTRAVQPLRLPSNKAQVKPGQTCSVAGWGQTAPLGPHSHTLQEVKMTVQEDRLCEIDLRHYYDSTIELCVGDPEIKKTSFRGDSGGPLVCNKVAQGIVSYGRNNGMPPRACTKVSSFVHWIKKTMKRY
Regarding B12, the “protease activity (cleavage of Ac-IEPD-pNA, absorbance at 405 nm) after 1 h at 37 C with 0.5 uM PI-9, relative to wild-type granzyme B” value is recorded as “the variants maintained high protease activity even in the presence of inhibitors”.
